Assay results taken from patent US20200308309A1 (Novartis, published 2020).
Each block holds one binder with its values, some of them ahead of it.

Legend:
Recombinant human IL-1β = target: T1, Recombinant human IL-1β (human, UniProt P01584 117-269); experiment: SET simultaneous target binding, Assay B (both targets in serial dilutions in one mix), ECL read-out
T1 construct: also called huIL-1β

[1] = target: T2, Recombinant marmoset IL-1β (marmoset, UniProt U3E018 117-268); experiment: as above
T2 construct: also called marIL-1β

[2] = target: T2, Recombinant marmoset IL-1β; experiment: cell-based or functional assay
[3] = target: T3, Recombinant marmoset IL-18 (marmoset, UniProt U3CWC9 37-190); experiment: SET simultaneous target binding, Assay B (both targets in serial dilutions in one mix), ECL read-out
T3 construct: also called marIL-18
T3 sequence: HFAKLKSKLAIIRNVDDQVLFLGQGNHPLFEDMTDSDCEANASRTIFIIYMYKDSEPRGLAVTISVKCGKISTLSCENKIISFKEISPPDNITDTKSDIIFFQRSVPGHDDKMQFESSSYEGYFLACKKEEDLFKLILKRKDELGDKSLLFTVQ

Recombinant human IL-18 = target: T4, Recombinant human IL-18 (human, UniProt Q14116 37-193); experiment: as above
T4 construct: A biotinylated form (BTP25828) was coated on the read-out plate in the SET assay; The titrated antigen in solution is huIL-18; also called huIL-18

binding result (Recombinant human IL-1β): no binding
binding result [1]: no binding
B1: mAb1 (antibody, human IgG1, lambda, L234A L235A, V domains shown)
VH: EVQLVQSGAEVKKPGSSVKVSCKASGGTFKSYAISWVRQAPGQGLEWMGNIIPMTGQTYYAQKFQGRVTITADESTSTAYMELSSLRSEDTAVYYCARAAYHPLVFDNWGQGTLVTVSS
VL: DIVLTQPPSVSGAPGQRVTISCSGSSSNIGNHYVNWYQQLPGTAPKLLIYRNNHRPSGVPDRFSGSKSGTSASLAITGLQSEDEADYYCQSWDYSGFSTVFGGGTKLTVLG
notes: Human monospecific bivalent IgG1 with lambda light chain (Vlambda1); also called IL-18 antibody; anti-IL18 IgG1

IL-6 prod. in dermal fibroblasts stimulated with recombinant marmoset IL-1β (18 pM), IC50, Exp. A (marmoset dermal fibroblasts by the column head) [2]: 95 pM
IL-6 prod. in dermal fibroblasts stimulated with recombinant marmoset IL-1β (18 pM), IC50, Exp. B (marmoset or human fibroblasts: column heads unclear) [2]: 0.138 nM
IL-6 prod. in dermal fibroblasts stimulated with recombinant marmoset IL-1β (18 pM), IC50, Exp. C (marmoset or human fibroblasts: column heads unclear) [2]: 0.114 nM
binding result [3]: no binding
binding result (Recombinant human IL-18): no binding
B2: mAb2 (antibody, human IgG1, kappa, V domains shown)
VH: QVQLVESGGGVVQPGRSLRLSCAASGFTFSVYGMNWVRQAPGKGLEWVAIIWYDGDNQYYADSVKGRFTISRDNSKNTLYLQMNGLRAEDTAVYYCARDLRTGPFDYWGQGTLVTVSS
VL: EIVLTQSPDFQSVTPKEKVTITCRASQSIGSSLHWYQQKPDQSPKLLIKYASQSFSGVPSRFSGSGSGTDFTLTINSLEAEDAAAYYCHQSSSLPFTFGPGTKVDIKR
notes: Human monospecific bivalent IgG1 with kappa light chain (Vkappa6); also called IL-1β antibody; anti IL-1β IgG1
